The values below come from the supplement of paper PMC5998384.

Series [1] concerns HeLa Kyoto. Description: solubility in G1/S (NP-40 vs SDS abundance) (log2 ratio); higher = more soluble. As to conditions: cell cycle stage: G1/S.
Series [2] deals with HeLa Kyoto. Description: melting temperature (median over replicates), in situ; higher = more thermally stable.
Series [3] deals with HeLa Kyoto. The experiment in a line: solubility change mitosis vs G1/S (difference of NP-40 vs SDS log2 ratios) (log2 ratio difference); higher = more soluble in mitosis.
Series [4] concerns HeLa Kyoto. The experiment in a line: thermal stability score vs G1/S (z-score of summed log2 fold changes over temperatures); higher = more thermally stable than in G1/S.
The mark [5] stands for this setting: cell cycle stage: early G1 (4.5 h after nocodazole release).
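For melting temperature (median over replicates), in situ in this document: HeLa Kyoto cells synchronized by double thymidine or nocodazole block, proteins quantified by TMT10plex mass spectrometry, three independent biological replicates.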
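For solubility change mitosis vs G1/S (difference of NP-40 vs SDS log2 ratios) in this document: synchronized HeLa Kyoto cells (double thymidine block for G1/S, nocodazole release for mitosis), protein amounts in NP-40 versus SDS lysates quantified by mass spectrometry, three biological replicates.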
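For solubility in G1/S (NP-40 vs SDS abundance) in this document: HeLa Kyoto cells arrested at G1/S by double thymidine block, proteins quantified by TMT10plex mass spectrometry in mild NP-40 versus SDS extracts, three biological replicates.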
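For thermal stability score vs G1/S (z-score of summed log2 fold changes over temperatures) in this document: synchronized HeLa Kyoto cells, proteins quantified by TMT10plex mass spectrometry, three biological replicates, mitosis taken 0.5 h after nocodazole release, G1/S directly after double thymidine block.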

Take “MATPVVTKTAWKLQEIVAHASNVSSLVLGKASGRLLATGGDDCRVNLWSINKPNCIMSLTGHTSPVESVRLNTPEELIVAGSQSGSIRVWDLEAAKILRTLMGHKANICSLDFHPYGEFVASGSQDTNIKLWDIRRKGCVFRYRGHSQAVRCLRFSPDGKWLASAADDHTVKLWDLTAGKMMSEFPGHTGPVNVVEFHPNEYLLASGSSDRTIRFWDLEKFQVVSCIEGEPGPVRSVLFNPDGCCLYSGCQDSLRVYGWEPERCFDVVLVNWGKVADLAICNDQLIGVAFSQSNVSSYVVDLTRVTRTGTVARDPVQDHRPLAQPLPNPSAPLRRIYERPSTTCSKPQRVKQNSESERRSPSSEDDRDERESRAEIQNAEDYNEIFQPKNSISRTPPRRSEPFPAPPEDDAATAKEAAKPSPAMDVQFPVPNLEVLPRPPVVASTPAPKAEPAIIPATRNEPIGLKASDFLPAVKIPQQAELVDEDAMSQIRKGHDTMCVVLTSRHKNLDTVRAVWTMGDIKTSVDSAVAINDLSVVVDLLNIVNQKASLWKLDLCTTVLPQIEKLLQSKYESYVQTGCTSLKLILQRFLPLITDMLAAPPSVGVDISREERLHKCRLCYKQLKSISGLVKSKSGLSGRHGSTFRELHLLMASLD [KATNB1]”: in the series with HeLa Kyoto [1], the “solubility in G1/S (log2)” value is -0.135. For the same substance, the melting temperature is 50.5 °C with HeLa Kyoto [2] (cell cycle stage: G1/S) and 51 °C in the series on HeLa Kyoto [2] (cell cycle stage: mitosis). In addition, the “solubility change mitosis (log2)” value with HeLa Kyoto [3] is -0.0538. Besides, the thermal stability score came out at 0.62 in the series on HeLa Kyoto [4] (setting [5]) and 0.499 in the series on HeLa Kyoto [4] (cell cycle stage: mitosis).

For the substance “MMDLRNTPAKSLDKFIEDYLLPDTCFRMQINHAIDIICGFLKERCFRGSSYPVCVSKVVKGGSSGKGTTLRGRSDADLVVFLSPLTTFQDQLNRRGEFIQEIRRQLEACQRERAFSVKFEVQAPRWGNPRALSFVLSSLQLGEGVEFDVLPAFDALGQLTGGYKPNPQIYVKLIEECTDLQKEGEFSTCFTELQRDFLKQRPTKLKSLIRLVKHWYQNCKKKLGKLPPQYALELLTVYAWERGSMKTHFNTAQGFRTVLELVINYQQLCIYWTKYYDFKNPIIEKYLRRQLTKPRPVILDPADPTGNLGGGDPKGWRQLAQEAEAWLNYPCFKNWDGSPVSSWILLAESNSADDETDDPRRYQKYGYIGTHEYPHFSHRPSTLQAASTPQAEEDWTCTIL [OAS1]”, the “solubility in G1/S (log2)” value in the series on HeLa Kyoto [1] stood at 0.134. Further, the melting temperature with HeLa Kyoto [2] (cell cycle stage: G1/S) was found to be 50.5 °C; with HeLa Kyoto [2] (cell cycle stage: mitosis) it was 49.5 °C. In addition, the “solubility change mitosis (log2)” value in the series with HeLa Kyoto [3] is -0.0843. The thermal stability score with HeLa Kyoto [4] (setting [5]) was -0.255; in the series on HeLa Kyoto [4] (cell cycle stage: mitosis), 0.00402.

For “MSEVTKNSLEKILPQLKCHFTWNLFKEDSVSRDLEDRVCNQIEFLNTEFKATMYNLLAYIKHLDGNNEAALECLRQAEELIQQEHADQAEIRSLVTWGNYAWVYYHLGRLSDAQIYVDKVKQTCKKFSNPYSIEYSELDCEEGWTQLKCGRNERAKVCFEKALEEKPNNPEFSSGLAIAMYHLDNHPEKQFSTDVLKQAIELSPDNQYVKVLLGLKLQKMNKEAEGEQFVEEALEKSPCQTDVLRSAAKFYRRKGDLDKAIELFQRVLESTPNNGYLYHQIGCCYKAKVRQMQNTGESEASGNKEMIEALKQYAMDYSNKALEKGLNPLNAYSDLAEFLETECYQTPFNKEVPDAEKQQSHQRYCNLQKYNGKSEDTAVQHGLEGLSISKKSTDKEEIKDQPQNVSENLLPQNAPNYWYLQGLIHKQNGDLLQAAKCYEKELGRLLRDAPSGIGSIFLSASELEDGSEEMGQGAVSSSPRELLSNSEQLN [IFIT3]”, the “solubility in G1/S (log2)” value in the series on HeLa Kyoto [1] was 0.357. In addition, the results for the melting temperature in the series with HeLa Kyoto [2] (cell cycle stage: G1/S) and in the series with HeLa Kyoto [2] (cell cycle stage: mitosis) were 48.2 °C and 49 °C, respectively. Moreover, the “solubility change mitosis (log2)” value with HeLa Kyoto [3] was -0.0471. Besides, the thermal stability score in the series with HeLa Kyoto [4] (setting [5]) was -0.282; in the series on HeLa Kyoto [4] (cell cycle stage: mitosis) it was 1.1.

With TACC3, the “solubility in G1/S (log2)” value in the series with HeLa Kyoto [1] was determined as 0.351. Further, the melting temperature with HeLa Kyoto [2] (cell cycle stage: G1/S) was 53.3 °C; in the series with HeLa Kyoto [2] (cell cycle stage: mitosis), 53.1 °C. The “solubility change mitosis (log2)” value in the series with HeLa Kyoto [3] worked out at 0.304. In addition, the thermal stability score in the series with HeLa Kyoto [4] (setting [5]) was -0.722; with HeLa Kyoto [4] (cell cycle stage: mitosis), 1.13.

Consider “MNIDDKLEGLFLKCGGIDEMQSSRTMVVMGGVSGQSTVSGELQDSVLQDRSMPHQEILAADEVLQESEMRQQDMISHDELMVHEETVKNDEEQMETHERLPQGLQYALNVPISVKQEITFTDVSEQLMRDKKQIREPVDLQKKKKRKQRSPAKILTINEDGSLGLKTPKSHVCEHCNAAFRTNYHLQRHVFIHTGEKPFQCSQCDMRFIQKYLLQRHEKIHTGEKPFRCDECGMRFIQKYHMERHKRTHSGEKPYQCEYCLQYFSRTDRVLKHKRMCHENHDKKLNRCAIKGGLLTSEEDSGFSTSPKDNSLPKKKRQKTEKKSSGMDKESALDKSDLKKDKNDYLPLYSSSTKVKDEYMVAEYAVEMPHSSVGGSHLEDASGEIHPPKLVLKKINSKRSLKQPLEQNQTISPLSTYEESKVSKYAFELVDKQALLDSEGNADIDQVDNLQEGPSKPVHSSTNYDDAMQFLKKKRYLQAASNNSREYALNVGTIASQPSVTQAAVASVIDESTTASILESQALNVEIKSNHDKNVIPDEVLQTLLDHYSHKANGQHEISFSVADTEVTSSISINSSEVPEVTPSENVGSSSQASSSDKANMLQEYSKFLQQALDRTSQNDAYLNSPSLNFVTDNQTLPNQPAFSSIDKQVYATMPINSFRSGMNSPLRTTPDKSHFGLIVGDSQHSFPFSGDETNHASATSTQDFLDQVTSQKKAEAQPVHQAYQMSSFEQPFRAPYHGSRAGIATQFSTANGQVNLRGPGTSAEFSEFPLVNVNDNRAGMTSSPDATTGQTFG [ZNF148]”, for which, in the series with HeLa Kyoto [1], the “solubility in G1/S (log2)” value is -0.236. Moreover, the melting temperature with HeLa Kyoto [2] (cell cycle stage: G1/S) came to 51.6 °C; with HeLa Kyoto [2] (cell cycle stage: mitosis), 51.1 °C. Besides, the “solubility change mitosis (log2)” value with HeLa Kyoto [3] is 0.123. Also, the thermal stability score with HeLa Kyoto [4] (setting [5]) was 1.13; in the series on HeLa Kyoto [4] (cell cycle stage: mitosis), -1.33.
